Test results reported in patent publication US20090117124A1 (Pfizer, published 2009).

Assays:
[1] = molecular target: T1, free IgE in human serum (healthy volunteers, in-house donors) (human, UniProt P01854-1 1-428); assay: serum free IgE depletion ELISA; DIN 0748
T1 construct: Kept apart from the bought myeloma IgE because it is native serum IgE of single donors; also called serum IgE
Method: (§1) The next day ELISA plates were washed 1× with 300 μL/well wash buffer (0.05% Tween-20, Sigma, Cat. No. P7949/TBS) then blocked with 150 μL/well 1% BSA (Sigma, Cat. No. A7030) in TBS for 1 hour at room temperature.

[2] = molecular target: T1, free IgE in human serum (healthy …); assay: serum free IgE depletion ELISA; DIN 0623 experiment 1
Method: as §1

[3] = molecular target: T2, cynomolgus monkey IgE (in cynomolgus serum, Harlan Sera-Lab Ltd) (cynomolgus monkey); assay: capture ELISA, Test 1, Cyno 5
T2 construct: Serum was the source of IgE; eight serum samples; also called cynomolgus IgE; Cyno 1 to Cyno 8 serum samples
Method: (§2) Wells were washed once with 150 μL/well wash buffer (0.05% Tween-20, Sigma, Cat. No. P7949/TBS) then blocked with 150 μL/well 1% BSA (Sigma, Cat. No. A7030) in TBS for 2 hours at room temperature. Wells were washed twice with 150 μL wash buffer. 50 μL human (in-house donors) or cynomolgus serum (Harlan Sera-Lab Ltd, Loughborough) was added from neat to at least 1:16 dilution in 1% BSA/0.05% Tween-20/TBS diluent buffer. […] Wells were incubated for 2 hours at 25° C. before washing (3×150 μL wash buffer). […] Wells were incubated for 1 hour at 25° C. then washed (3×150 μL wash buffer). Streptavidin-HRP (Amersham Bioscience, Cat. No. RPN 1231) diluted 1:1000 in diluent buffer was added to all wells and incubated for 45 minutes at room temperature. Wells were washed (3×150 […] wash buffer). 50 μL OPD (Dako, Cat. No. S2045) was added to all wells and the color allowed to develop for 10 minutes before stopping the reaction with 50 μl 0.6M H₂SO₄ and the absorbance measured at 490 nm.

[4] = molecular target: T1, free IgE in human serum (healthy …); assay: serum free IgE depletion ELISA; DIN 0632 experiment 1
Method: as §1

[5] = molecular target: T2, cynomolgus monkey IgE (in cynomolgus …); assay: capture ELISA, Test 1, Cyno 2
Method: as §2

[6] = molecular target: T1, free IgE in human serum (healthy …); assay: serum free IgE depletion ELISA; DIN 0382
Method: as §1

[7] = molecular target: T1, free IgE in human serum (healthy …); assay: serum free IgE depletion ELISA; DIN 0451 experiment 1
Method: as §1

[8] = molecular target: T2, cynomolgus monkey IgE (in cynomolgus …); assay: capture ELISA, Test 1, Cyno 7
Method: as §2

[9] = molecular target: T1, free IgE in human serum (healthy …); assay: serum free IgE depletion ELISA; DIN 0321 experiment 1
Method: as §1

[10] = molecular target: T2, cynomolgus monkey IgE (in cynomolgus …); assay: capture ELISA, Test 1, Cyno 1
Method: as §2

[11] = molecular target: T2, cynomolgus monkey IgE (in cynomolgus …); assay: capture ELISA, Test 1, Cyno 3
Method: as §2

[12] = molecular target: T1, free IgE in human serum (healthy …); assay: serum free IgE depletion ELISA; DIN 0284
Method: as §1

[13] = molecular target: T1, free IgE in human serum (healthy …); assay: capture ELISA, Test 1, human serum
Method: as §2

T1 sequence (P01854 other isoform, or with tags, fused parts or gaps): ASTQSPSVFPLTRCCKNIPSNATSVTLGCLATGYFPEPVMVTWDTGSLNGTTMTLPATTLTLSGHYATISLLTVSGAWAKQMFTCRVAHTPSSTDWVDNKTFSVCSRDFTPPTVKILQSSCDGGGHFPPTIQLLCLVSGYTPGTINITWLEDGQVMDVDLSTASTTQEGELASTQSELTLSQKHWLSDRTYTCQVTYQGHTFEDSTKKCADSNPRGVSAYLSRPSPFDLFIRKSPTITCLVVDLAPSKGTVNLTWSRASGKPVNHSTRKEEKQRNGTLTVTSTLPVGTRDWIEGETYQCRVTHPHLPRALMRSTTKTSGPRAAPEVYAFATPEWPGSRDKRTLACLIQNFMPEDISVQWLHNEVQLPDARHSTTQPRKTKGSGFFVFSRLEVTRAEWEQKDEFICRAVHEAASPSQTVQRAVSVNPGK

IC25 ng/mL [1]: 25.1 µg/mL | IC25 ng/mL [2]: 0.5 µg/mL | IgE concentration detected [3]: 837 ng/mL | IC25 ng/mL [4]: 8.91 µg/mL | IgE concentration detected [5]: 464 ng/mL | IC25 ng/mL [6]: 25 µg/mL | IC25 ng/mL [7]: 11.6 µg/mL | IgE concentration detected [8]: 8 ng/mL | IC25 ng/mL [9]: 1.34 µg/mL | IgE concentration detected [10]: 481 ng/mL | IgE concentration detected [11]: 457 ng/mL | IC25 ng/mL [12]: 2.45 µg/mL | IgE concentration detected [13]: 468 ng/mL
B1: 5.948.1 (recombinant) (antibody, human IgG2, kappa, V domains shown)
VH: QVQLVQSGAEVKKPGASVKVSCKASGYTFTSYDINWVRQATGQGLEWMGWMDPNSGNTGYAQKFQGRVTMTRNTSISTAYMELSSLRSEDTAVYYCARGHYDSDGYYSFSGMDVWGQGTTVTVSS
VL: not shown
notes: Human IgG2 kappa; leader omitted; Two batches were tested in some assays; also called recombinant 5.948.1; 5.948.1 - Batch 1 (762.8 µg/mL)
